B1: F1*; the commonest letter at each place (parent)
chain: GAGACCGCAACTGAAAAGTTGTTATCACTTGTCGTAAGACACTTTGGATGGGTTGAAGTTCTGCACGTAGAAGCAAAAGGC

Variants of: B1
Assay: fraction ligated after 30 min (ligated reads / total reads); higher = more ligase activity
Conditions: with F1*sub RNA substrate (template-directed ligation), 42 °C
Description: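 Chip-synthesised pool of F1* ligase ribozyme variants (all single and double substitutions, single, double and triple deletions in the catalytic core and GAA bulge, plus designed variants) was transcribed with T7 and reacted as a pool with excess substrate F1*sub for 30 min at 42 C in 50 mM EPPS pH 8.5, 25 mM MgCl2. Ligated and unligated bands were separated by PAGE, barcoded by RT and deep sequenced; fraction ligated = ligated reads / total reads per variant, relative activity = FL / FL of wild type (0.826). Sequences are the DNA template of the ribozyme.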

Compared with A24G C33G, A24G C33T is higher in fraction ligated: 0.785 for the first, 0.832 for the second.

Compared with A24G C33A, T25A G31A is lower in fraction ligated: 0.746 for the first, 0.0494 for the second.

First: T25A G31T
Second: T25A G31C
The fraction ligated of the first is lower: 0.0308 for the first, 0.034 for the second.

Compared with T25A C28A, T25A C28G is higher in fraction ligated: 0.396 for the first, 0.431 for the second.

Compared with T25A C28T, A24C G46C is lower in fraction ligated: 0.714 for the first, 0.043 for the second.

First: A24C G46T
Second: A24C G46A
The fraction ligated of the first is lower: 0.0441 for the first, 0.335 for the second.

First: A24C T32A
Second: A24C T32C
The fraction ligated of the first is lower: 0.0611 for the first, 0.062 for the second.

Compared with A24C T32G, A24T A36C is higher in fraction ligated: 0.144 for the first, 0.805 for the second.

First: A24T A36G
Second: A24T A36T
The fraction ligated of the first is lower: 0.519 for the first, 0.794 for the second.

First: A24G G46T
Second: A24G G46C
The fraction ligated of the first is lower: 0.621 for the first, 0.765 for the second.

Compared with A24G G46A, A24T T29A is lower in fraction ligated: 0.803 for the first, 0.789 for the second.

Compared with A24T T29C, A24T T29G is higher in fraction ligated: 0.6 for the first, 0.716 for the second.

First: T25C A36T
Second: T25C A36G
The fraction ligated of the first is lower: 0.793 for the first, 0.816 for the second.

First: T25C A36C
Second: A24C T45G
The fraction ligated of the first is higher: 0.771 for the first, 0.0118 for the second.

First: A24C T45C
Second: A24C T45A
The fraction ligated of the first is lower: 0.0358 for the first, 0.152 for the second.

First: A24G T43A
Second: A24G T43C
The fraction ligated of the first is higher: 0.765 for the first, 0.694 for the second.

Compared with A24G T43G, T25A G50T is lower in fraction ligated: 0.694 for the first, 0.536 for the second.

First: T25A G50C
Second: T25A G50A
The fraction ligated of the first is higher: 0.267 for the first, 0.225 for the second.

Compared with A24G A57C, A24G A57T is higher in fraction ligated: 0.632 for the first, 0.728 for the second.

First: A24G A57G
Second: A24T A37T
The fraction ligated of the first is lower: 0.762 for the first, 0.786 for the second.

Compared with A24T A37G, A24T A37C is lower in fraction ligated: 0.792 for the first, 0.77 for the second.

First: A24T T49C
Second: A24T T49G
The fraction ligated of the first is lower: 0.694 for the first, 0.783 for the second.

Compared with A24T T49A, T25A T49A is lower in fraction ligated: 0.8 for the first, 0.721 for the second.

Going from T25A T49C to T25A T49G, the fraction ligated rises from 0.612 to 0.772.

Going from A24C G55A to A24C G55C, the fraction ligated falls from 0.649 to 0.158.

First: A24C G55T
Second: A24C G50T
The fraction ligated of the first is lower: 0.0793 for the first, 0.646 for the second.

Going from A24C G50C to A24C G50A, the fraction ligated falls from 0.532 to 0.431.

Going from A24G G34C to A24G G34T, the fraction ligated falls from 0.73 to 0.729.

Going from A24G G34A to A24G C42G, the fraction ligated rises from 0.763 to 0.795.

First: A24G C42A
Second: A24G C42T
The fraction ligated of the first is lower: 0.796 for the first, 0.802 for the second.

First: T25A T29A
Second: T25A T29G
The fraction ligated of the first is lower: 0.582 for the first, 0.691 for the second.

First: T25A T29C
Second: A24G A56T
The fraction ligated of the first is higher: 0.187 for the first, 0.0729 for the second.

First: A24G A56G
Second: A24G A56C
The fraction ligated of the first is higher: 0.0845 for the first, 0.0669 for the second.

Compared with T25A T35A, T25A T35G is higher in fraction ligated: 0.751 for the first, 0.764 for the second.

Compared with T25A T35C, A24C G34T is lower in fraction ligated: 0.761 for the first, 0.648 for the second.

First: A24C G34C
Second: A24C G34A
The fraction ligated of the first is lower: 0.185 for the first, 0.727 for the second.

Compared with A24C C42A, A24C C42G is lower in fraction ligated: 0.779 for the first, 0.775 for the second.

Compared with A24C C42T, T25A G47A is lower in fraction ligated: 0.779 for the first, 0.462 for the second.

Going from T25A G47T to T25A G47C, the fraction ligated falls from 0.253 to 0.0196.

Going from A24T A48T to A24T A48C, the fraction ligated rises from 0.00859 to 0.499.

Compared with A24T A48G, A24G T45A is higher in fraction ligated: 0.214 for the first, 0.22 for the second.

First: A24G T45G
Second: A24G T45C
The fraction ligated of the first is higher: 0.0477 for the first, 0.0441 for the second.

First: T25A A48C
Second: T25A A48G
The fraction ligated of the first is higher: 0.752 for the first, 0.459 for the second.

Going from T25A A48T to A24G G38C, the fraction ligated falls from 0.822 to 0.695.

Compared with A24G G38A, A24G G38T is lower in fraction ligated: 0.752 for the first, 0.745 for the second.

Compared with A24G G50A, A24G G50C is lower in fraction ligated: 0.449 for the first, 0.257 for the second.

Compared with A24G G50T, A24T T32C is lower in fraction ligated: 0.491 for the first, 0.243 for the second.

Compared with A24T T32A, A24T T32G is higher in fraction ligated: 0.153 for the first, 0.372 for the second.

First: A24T C26A
Second: A24T C26T
The fraction ligated of the first is higher: 0.217 for the first, 0.124 for the second.

First: A24T C26G
Second: T25C
The fraction ligated of the first is lower: 0.201 for the first, 0.759 for the second.

Compared with T25A, A24T C42G is higher in fraction ligated: 0.749 for the first, 0.769 for the second.

Going from A24T C42A to A24T C42T, the fraction ligated rises from 0.743 to 0.792.

First: A24T G55C
Second: A24T G55T
The fraction ligated of the first is lower: 0.107 for the first, 0.18 for the second.

First: A24T G55A
Second: T25A T43G
The fraction ligated of the first is lower: 0.532 for the first, 0.624 for the second.

Compared with T25A T43A, T25A T43C is lower in fraction ligated: 0.463 for the first, 0.286 for the second.

First: A24G G55T
Second: A24G G55A
The fraction ligated of the first is lower: 0.629 for the first, 0.685 for the second.

First: A24G G55C
Second: A24C T49A
The fraction ligated of the first is lower: 0.18 for the first, 0.805 for the second.

First: A24C T49C
Second: A24C T49G
The fraction ligated of the first is lower: 0.731 for the first, 0.806 for the second.

Going from T25A T30C to T25A T30G, the fraction ligated rises from 0.218 to 0.461.

First: T25A T30A
Second: A24G T49C
The fraction ligated of the first is lower: 0.32 for the first, 0.731 for the second.

Going from A24G T49G to A24G T49A, the fraction ligated rises from 0.731 to 0.742.

First: A24T G50A
Second: A24T G50C
The fraction ligated of the first is lower: 0.265 for the first, 0.295 for the second.

Compared with A24T G50T, T25C A39C is higher in fraction ligated: 0.535 for the first, 0.741 for the second.

Compared with T25C A39G, T25C A39T is lower in fraction ligated: 0.786 for the first, 0.766 for the second.

First: A24G C26T
Second: A24G C26G
The fraction ligated of the first is higher: 0.728 for the first, 0.268 for the second.

First: A24G C26A
Second: A24T T35G
The fraction ligated of the first is lower: 0.711 for the first, 0.772 for the second.

First: A24T T35A
Second: A24T T35C
The fraction ligated of the first is higher: 0.808 for the first, 0.788 for the second.

Going from A24T T43A to A24T T43C, the fraction ligated falls from 0.678 to 0.621.

Compared with A24T T43G, T25A A57C is lower in fraction ligated: 0.708 for the first, 0.199 for the second.

First: T25A A57G
Second: T25A A57T
The fraction ligated of the first is higher: 0.345 for the first, 0.252 for the second.

Going from A24T A39T to A24T A39C, the fraction ligated rises from 0.619 to 0.636.

Going from A24T A39G to A24C G47C, the fraction ligated falls from 0.793 to 0.00476.

First: A24C G47T
Second: A24C G47A
The fraction ligated of the first is lower: 0.0249 for the first, 0.806 for the second.

Going from A24T A57T to A24T A57G, the fraction ligated rises from 0.503 to 0.729.

Going from A24T A57C to T25A A37T, the fraction ligated rises from 0.386 to 0.776.

Going from T25A A37C to T25A A37G, the fraction ligated rises from 0.744 to 0.772.

Compared with T25A A27T, T25A A27C is lower in fraction ligated: 0.371 for the first, 0.266 for the second.

First: T25A A27G
Second: A24G T25C
The fraction ligated of the first is lower: 0.372 for the first, 0.765 for the second.

First: A24G T25A
Second: A24G T25G
The fraction ligated of the first is higher: 0.697 for the first, 0.368 for the second.

Compared with T25A G55T, T25A G55A is higher in fraction ligated: 0.0485 for the first, 0.263 for the second.

First: T25A G55C
Second: A24T C28G
The fraction ligated of the first is lower: 0.0483 for the first, 0.373 for the second.

First: A24T C28A
Second: A24T C28T
The fraction ligated of the first is lower: 0.492 for the first, 0.794 for the second.

Going from A24G to A24T, the fraction ligated rises from 0.777 to 0.778.

A24G A48T gave a fraction ligated of 0.0442.
